According to article PMC314469, “Protein Interaction Networks by Proteome Peptide Scanning” (PLoS Biology, 2004):

Tests used:
[1] = target: T1, amphyphisin SH3 (AMPH_HUMAN), P49418; test: SPOT array
T1 chain: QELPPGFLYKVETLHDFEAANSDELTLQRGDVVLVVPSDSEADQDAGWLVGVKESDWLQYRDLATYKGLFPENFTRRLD

[2] = target: endophilin SH3 (SH3G2_HUMAN), Q99962; test: SPOT array

AASGIKRPMASEVL [Q99755 29-42]
normalised SPOT signal, Boehringer light units (BLU); mean over the file's lines of this peptide [1]: 48.8
normalised SPOT signal, Boehringer light units (BLU); mean over the file's lines of this peptide [2]: 116

PTRPPSRPPSRPQS [Q9NZM4 744-758]
normalised SPOT signal, Boehringer light units (BLU); mean over the file's lines of this peptide [1]: 7120
normalised SPOT signal, Boehringer light units (BLU); mean over the file's lines of this peptide [2]: 5850

PTGQPRRPRNLAAA [Q00325 36-49]
normalised SPOT signal, Boehringer light units (BLU); mean over the file's lines of this peptide [1]: 66
normalised SPOT signal, Boehringer light units (BLU); mean over the file's lines of this peptide [2]: 254

PVLSPRRPWPSLSW [Q9NUD3 48-61]
normalised SPOT signal, Boehringer light units (BLU); mean over the file's lines of this peptide [1]: 101
normalised SPOT signal, Boehringer light units (BLU); mean over the file's lines of this peptide [2]: 109

PTKSIKRPSPAEKS [Q9HC35 168-181]
normalised SPOT signal, Boehringer light units (BLU); mean over the file's lines of this peptide [1]: 7.4
normalised SPOT signal, Boehringer light units (BLU); mean over the file's lines of this peptide [2]: 75.3

PTQELRRPSKSMDK [Q9C098 170-183]
normalised SPOT signal, Boehringer light units (BLU); mean over the file's lines of this peptide [1]: 48.6
normalised SPOT signal, Boehringer light units (BLU); mean over the file's lines of this peptide [2]: 35

PVEAIKRPSPDEPM [Q9H3D6 83-96]
normalised SPOT signal, Boehringer light units (BLU); mean over the file's lines of this peptide [1]: 42.3
normalised SPOT signal, Boehringer light units (BLU); mean over the file's lines of this peptide [2]: 101

PTILPSRPQRSASH [Q16671 539-552]
normalised SPOT signal, Boehringer light units (BLU); mean over the file's lines of this peptide [1]: 17500
normalised SPOT signal, Boehringer light units (BLU); mean over the file's lines of this peptide [2]: 9690

PVLDLRRPPSDLYL [Q9Y618 2172-2185]
normalised SPOT signal, Boehringer light units (BLU); mean over the file's lines of this peptide [1]: 35.4
normalised SPOT signal, Boehringer light units (BLU); mean over the file's lines of this peptide [2]: 63.7

PTRPPSRPPSRPSR [Q99700 579-593]
normalised SPOT signal, Boehringer light units (BLU); mean over the file's lines of this peptide [1]: 23500
normalised SPOT signal, Boehringer light units (BLU); mean over the file's lines of this peptide [2]: 19900

PTTRPTRPPPPLIP [O75376 1024-1038]
normalised SPOT signal, Boehringer light units (BLU); mean over the file's lines of this peptide [1]: 1510
normalised SPOT signal, Boehringer light units (BLU); mean over the file's lines of this peptide [2]: 4420

PVAVLKRPSQLSRK [Q9BQI8 153-166]
normalised SPOT signal, Boehringer light units (BLU); mean over the file's lines of this peptide [1]: 46.3
normalised SPOT signal, Boehringer light units (BLU); mean over the file's lines of this peptide [2]: 72.6

PTSVPRRPGQRRPP [P48023 33-46]
normalised SPOT signal, Boehringer light units (BLU); mean over the file's lines of this peptide [1]: 32.6
normalised SPOT signal, Boehringer light units (BLU); mean over the file's lines of this peptide [2]: 870

PVLDLKRPFLSRES [P47985 41-54]
normalised SPOT signal, Boehringer light units (BLU); mean over the file's lines of this peptide [1]: 47
normalised SPOT signal, Boehringer light units (BLU); mean over the file's lines of this peptide [2]: 50.1

PTVTPRRPGRPDHR [P51511 317-330]
normalised SPOT signal, Boehringer light units (BLU); mean over the file's lines of this peptide [1]: 5240
normalised SPOT signal, Boehringer light units (BLU); mean over the file's lines of this peptide [2]: 420

ASSGLRRPEKPPYS [Q12947 91-104]
normalised SPOT signal, Boehringer light units (BLU); mean over the file's lines of this peptide [1]: 57.5
normalised SPOT signal, Boehringer light units (BLU); mean over the file's lines of this peptide [2]: 106

PTGSLRRPLGPHAP [Q9H3T3 825-838]
normalised SPOT signal, Boehringer light units (BLU); mean over the file's lines of this peptide [1]: 15.7
normalised SPOT signal, Boehringer light units (BLU); mean over the file's lines of this peptide [2]: 35
